Assay results from paper PMC7763993, “Depletion of Boric Acid and Cobalt from Cultivation Media: Impact on Recombinant Protein Production with Komagataella phaffii” (Bioengineering, 2020).

Substrate: CCn1c(=NN=c2sc3cc(S(=O)(=O)O)ccc3n2CC)sc2cc(S(=O)(=O)O)ccc21
Test: purified protein
Type: biochemical, Armoracia rusticana
Details: H2O2 co-substrate, 50 mM phosphate citrate pH 5, 30 °C, 0.05-7 mM ABTS, enzyme from cultivation F5 (glass, with Co and boric acid)

B1: horseradish peroxidase isoenzyme A2A (HRP) (Armoracia rusticana) (protein)
chain: QLNATFYSGTCPNASAIVRSTIQQAFQSDTRIGASLIRLHFHDCFVDGCDASILLDDSGSIQSEKNAGPNANSARGFNVVDNIKTALENTCPGVVSCSDILALASEASVSLTGGPSWTVLLGRRDSLTANLAGANSAIPSPFEGLSNITSKFSAVGLNTNDLVALSGAHTFGRARCGVFNNRLFNFSGTNGPDPTLNSTLLSSLQQLCPQNGSASTITNLDLSTPDAFDNNYFANLQSNNGLLQSDQELFSTLGSATIAVVTSFASNQTLFFQAFAQSMINMGNISPLTGSNGEIRLDCKKVDGS
notes: secreted from K. phaffii BSYBG11 MutS, codon-optimized gene; glycosylated, negative AIEX flow-through; monomeric, 2 calcium, heme
  Km: 2110 ± 350 µM
